Measured values published in patent US20140087995A1 (published 2014).
Numbered stars: 1 amine (or outer) side, 2 acyl side, 3 side chain; on linkers, the order of the positions; unused ones are H or OH. Bridge positions count the residues as written; N and C are the ends. * marks the point of attachment. C20 diacid = O=C(O)CCCCCCCCCCCCCCCCCCC(=O)*; γGlu = O=C(O)[C@H](CCC(=O)[*:2])N[*:1]

T1: human calcitonin receptor (human, UniProt P30988 25-474)
T1 construct: whole, on cells; Used as membranes prepared from the transfected cells (Assay VII); also called hCTR; hCT
T1 sequence (looked up): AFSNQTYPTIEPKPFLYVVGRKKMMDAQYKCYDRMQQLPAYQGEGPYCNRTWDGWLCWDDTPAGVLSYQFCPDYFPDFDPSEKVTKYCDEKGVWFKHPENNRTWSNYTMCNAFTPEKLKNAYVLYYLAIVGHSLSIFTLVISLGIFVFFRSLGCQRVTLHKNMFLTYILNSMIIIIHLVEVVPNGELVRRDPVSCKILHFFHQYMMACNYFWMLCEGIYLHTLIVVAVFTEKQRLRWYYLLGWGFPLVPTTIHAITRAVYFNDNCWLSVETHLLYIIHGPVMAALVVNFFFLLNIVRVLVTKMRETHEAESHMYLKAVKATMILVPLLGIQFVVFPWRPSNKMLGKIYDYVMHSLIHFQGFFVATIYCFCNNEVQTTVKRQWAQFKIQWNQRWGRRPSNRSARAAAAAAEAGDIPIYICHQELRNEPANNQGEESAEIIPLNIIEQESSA

T2: rat calcitonin receptor (rat, UniProt P32214 25-516)
T2 construct: whole, on cells; Used as membranes prepared from the transfected cells; also called rCTR; rat calcitonin (a) receptor
T2 sequence (looked up): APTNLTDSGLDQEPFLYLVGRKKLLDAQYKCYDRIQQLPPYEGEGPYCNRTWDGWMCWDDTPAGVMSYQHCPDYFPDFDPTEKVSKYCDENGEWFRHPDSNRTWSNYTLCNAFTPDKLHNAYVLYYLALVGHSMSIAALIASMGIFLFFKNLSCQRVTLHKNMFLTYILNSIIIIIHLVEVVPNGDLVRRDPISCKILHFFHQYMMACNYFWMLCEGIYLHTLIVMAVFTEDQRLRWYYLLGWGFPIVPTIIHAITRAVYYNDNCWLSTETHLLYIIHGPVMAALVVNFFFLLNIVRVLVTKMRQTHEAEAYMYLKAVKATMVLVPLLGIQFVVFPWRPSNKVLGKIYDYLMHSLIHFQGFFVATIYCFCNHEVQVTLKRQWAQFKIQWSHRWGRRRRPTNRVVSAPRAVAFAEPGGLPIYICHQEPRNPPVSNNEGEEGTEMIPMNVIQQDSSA

T3: rat amylin receptor (rat calcitonin receptor + rat RAMP 3) (rat, UniProt P32214 25-516; Q9JJ73 23-147)
T3 construct: whole, on cells; Used as membranes prepared from the transfected cells; also called rAmylin-R; rat amylin 3(a) receptor
T3 sequence (looked up) 1: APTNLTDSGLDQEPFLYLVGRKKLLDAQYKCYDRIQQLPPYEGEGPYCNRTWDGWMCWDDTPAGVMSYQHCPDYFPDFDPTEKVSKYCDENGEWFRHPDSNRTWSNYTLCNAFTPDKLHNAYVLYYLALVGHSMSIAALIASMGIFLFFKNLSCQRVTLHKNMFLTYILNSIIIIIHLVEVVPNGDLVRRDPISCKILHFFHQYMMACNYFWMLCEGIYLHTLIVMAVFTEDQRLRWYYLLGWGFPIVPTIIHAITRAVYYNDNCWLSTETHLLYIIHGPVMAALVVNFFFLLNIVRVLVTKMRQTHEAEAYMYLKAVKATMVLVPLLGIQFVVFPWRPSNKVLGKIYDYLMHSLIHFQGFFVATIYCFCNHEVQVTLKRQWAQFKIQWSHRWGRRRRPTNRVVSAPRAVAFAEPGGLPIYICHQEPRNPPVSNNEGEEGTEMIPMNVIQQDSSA
T3 sequence (looked up) 2: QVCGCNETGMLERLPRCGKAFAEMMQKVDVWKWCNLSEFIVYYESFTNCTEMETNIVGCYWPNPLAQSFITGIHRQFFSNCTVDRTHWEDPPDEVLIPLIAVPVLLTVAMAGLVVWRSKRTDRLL


Experiments:
[1] = target: T1, human calcitonin receptor; assay: ratio IC50 human calcitonin receptor / IC50 human amylin receptor (Assays VII and V)
Method in brief: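 IC₅₀ values were derived by one-site competition analysis of SPA counts. Cell membranes (35 ng/μL) with SPA beads were incubated with test compounds for 120 min at 25° C in Hepes buffer, pH 7.4, containing CaCl2, MgCl₂, OA and Tween20.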

rat calcitonin receptor [2] = target: T2, rat calcitonin receptor; assay: ratio IC50 rat calcitonin receptor / IC50 rat amylin receptor (Assays VIII and VI)
[3] = target: T3, rat amylin receptor (rat calcitonin …); assay: SPA competition with 125I-rat amylin, membranes of BHK cells with rat calcitonin receptor + rat RAMP3 (Assay VI)
rat calcitonin receptor [4] = target: T2, rat calcitonin receptor; assay: SPA competition with 125I-calcitonin, membranes of BHK cells with rat calcitonin receptor (Assay VIII)

Binder	Ratio hCT/hAmylin binding [1]	Ratio rCT/rAmylin binding (rat calcitonin receptor [2])	IC50 [3] [nM]	IC50 (rat calcitonin receptor [4]) [nM]
{C20 diacid-γGlu}-KCNTATCATQRLAEFLRHSSPNFGAIPSSTNVGSHTY-NH2 (disulfide 2-7; SMILES CC[C@H](C)[C@H](NC(=O)[C@H](C)NC(=O)CNC(=O)[C@H](Cc1ccccc1)NC(=O)[C@H](CC(N)=O)NC(=O)[C@@H]1CCCN1C(=O)[C@H](CO)NC(=O)[C@H](CO)NC(=O)[C@H](Cc1c[nH]cn1)NC(=O)[C@H](CCCNC(=N)N)NC(=O)[C@H](CC(C)C)NC(=O)[C@H](Cc1ccccc1)NC(=O)[C@H](CCC(=O)O)NC(=O)[C@H](C)NC(=O)[C@H](CC(C)C)NC(=O)[C@H](CCCNC(=N)N)NC(=O)[C@H](CCC(N)=O)NC(=O)[C@@H](NC(=O)[C@H](C)NC(=O)[C@@H]1CSSC[C@H](NC(=O)[C@H](CCCCN)NC(=O)CC[C@H](NC(=O)CCCCCCCCCCCCCCCCCCC(=O)O)C(=O)O)C(=O)N[C@@H](CC(N)=O)C(=O)N[C@@H]([C@@H](C)O)C(=O)N[C@@H](C)C(=O)N[C@@H]([C@@H](C)O)C(=O)N1)[C@@H](C)O)C(=O)N1CCC[C@H]1C(=O)N[C@@H](CO)C(=O)N[C@@H](CO)C(=O)N[C@H](C(=O)N[C@@H](CC(N)=O)C(=O)N[C@H](C(=O)NCC(=O)N[C@@H](CO)C(=O)N[C@@H](Cc1c[nH]cn1)C(=O)N[C@H](C(=O)N[C@@H](Cc1ccc(O)cc1)C(N)=O)[C@@H](C)O)C(C)C)[C@@H](C)O, Derivative of human amylin; also called compound 18)	9.2	27.3	0.476	13
{C20 diacid-γGlu}-KCNTATCATQRLAEFLRHSSPNFGAIPSSTNVGHNTY-NH2 (disulfide 2-7; SMILES CC[C@H](C)[C@H](NC(=O)[C@H](C)NC(=O)CNC(=O)[C@H](Cc1ccccc1)NC(=O)[C@H](CC(N)=O)NC(=O)[C@@H]1CCCN1C(=O)[C@H](CO)NC(=O)[C@H](CO)NC(=O)[C@H](Cc1c[nH]cn1)NC(=O)[C@H](CCCNC(=N)N)NC(=O)[C@H](CC(C)C)NC(=O)[C@H](Cc1ccccc1)NC(=O)[C@H](CCC(=O)O)NC(=O)[C@H](C)NC(=O)[C@H](CC(C)C)NC(=O)[C@H](CCCNC(=N)N)NC(=O)[C@H](CCC(N)=O)NC(=O)[C@@H](NC(=O)[C@H](C)NC(=O)[C@@H]1CSSC[C@H](NC(=O)[C@H](CCCCN)NC(=O)CC[C@H](NC(=O)CCCCCCCCCCCCCCCCCCC(=O)O)C(=O)O)C(=O)N[C@@H](CC(N)=O)C(=O)N[C@@H]([C@@H](C)O)C(=O)N[C@@H](C)C(=O)N[C@@H]([C@@H](C)O)C(=O)N1)[C@@H](C)O)C(=O)N1CCC[C@H]1C(=O)N[C@@H](CO)C(=O)N[C@@H](CO)C(=O)N[C@H](C(=O)N[C@@H](CC(N)=O)C(=O)N[C@H](C(=O)NCC(=O)N[C@@H](Cc1c[nH]cn1)C(=O)N[C@@H](CC(N)=O)C(=O)N[C@H](C(=O)N[C@@H](Cc1ccc(O)cc1)C(N)=O)[C@@H](C)O)C(C)C)[C@@H](C)O, Derivative of human amylin; also called compound 17)	12.5	35.9	2.71	97.2

Further binders by falling IC50 [3], results first:

Ratio hCT/hAmylin binding [1]	Ratio rCT/rAmylin binding (rat calcitonin receptor [2])	IC50 [3] [nM]	IC50 (rat calcitonin receptor [4]) [nM]	Binder
19.1	45.6	1.21	55.2	{C20 diacid-γGlu}-KCNTATCATQRLAEFLRHSSPNFGAIPSSTNVGSRTY-NH2 (disulfide 2-7; SMILES CC[C@H](C)[C@H](NC(=O)[C@H](C)NC(=O)CNC(=O)[C@H](Cc1ccccc1)NC(=O)[C@H](CC(N)=O)NC(=O)[C@@H]1CCCN1C(=O)[C@H](CO)NC(=O)[C@H](CO)NC(=O)[C@H](Cc1c[nH]cn1)NC(=O)[C@H](CCCNC(=N)N)NC(=O)[C@H](CC(C)C)NC(=O)[C@H](Cc1ccccc1)NC(=O)[C@H](CCC(=O)O)NC(=O)[C@H](C)NC(=O)[C@H](CC(C)C)NC(=O)[C@H](CCCNC(=N)N)NC(=O)[C@H](CCC(N)=O)NC(=O)[C@@H](NC(=O)[C@H](C)NC(=O)[C@@H]1CSSC[C@H](NC(=O)[C@H](CCCCN)NC(=O)CC[C@H](NC(=O)CCCCCCCCCCCCCCCCCCC(=O)O)C(=O)O)C(=O)N[C@@H](CC(N)=O)C(=O)N[C@@H]([C@@H](C)O)C(=O)N[C@@H](C)C(=O)N[C@@H]([C@@H](C)O)C(=O)N1)[C@@H](C)O)C(=O)N1CCC[C@H]1C(=O)N[C@@H](CO)C(=O)N[C@@H](CO)C(=O)N[C@H](C(=O)N[C@@H](CC(N)=O)C(=O)N[C@H](C(=O)NCC(=O)N[C@@H](CO)C(=O)N[C@@H](CCCNC(=N)N)C(=O)N[C@H](C(=O)N[C@@H](Cc1ccc(O)cc1)C(N)=O)[C@@H](C)O)C(C)C)[C@@H](C)O, Derivative of human amylin; also called compound 16)
16.5	42	1.12	47.2	{C20 diacid-γGlu}-KCNTATCATQRLAEFLRHSSPNFGAPLSSTNVGSNTY-NH2 (disulfide 2-7; SMILES CC(C)C[C@H](NC(=O)[C@H](CCCNC(=N)N)NC(=O)[C@H](CCC(N)=O)NC(=O)[C@@H](NC(=O)[C@H](C)NC(=O)[C@@H]1CSSC[C@H](NC(=O)[C@H](CCCCN)NC(=O)CC[C@H](NC(=O)CCCCCCCCCCCCCCCCCCC(=O)O)C(=O)O)C(=O)N[C@@H](CC(N)=O)C(=O)N[C@@H]([C@@H](C)O)C(=O)N[C@@H](C)C(=O)N[C@@H]([C@@H](C)O)C(=O)N1)[C@@H](C)O)C(=O)N[C@@H](C)C(=O)N[C@@H](CCC(=O)O)C(=O)N[C@@H](Cc1ccccc1)C(=O)N[C@@H](CC(C)C)C(=O)N[C@@H](CCCNC(=N)N)C(=O)N[C@@H](Cc1c[nH]cn1)C(=O)N[C@@H](CO)C(=O)N[C@@H](CO)C(=O)N1CCC[C@H]1C(=O)N[C@@H](CC(N)=O)C(=O)N[C@@H](Cc1ccccc1)C(=O)NCC(=O)N[C@@H](C)C(=O)N1CCC[C@H]1C(=O)N[C@@H](CC(C)C)C(=O)N[C@@H](CO)C(=O)N[C@@H](CO)C(=O)N[C@H](C(=O)N[C@@H](CC(N)=O)C(=O)N[C@H](C(=O)NCC(=O)N[C@@H](CO)C(=O)N[C@@H](CC(N)=O)C(=O)N[C@H](C(=O)N[C@@H](Cc1ccc(O)cc1)C(N)=O)[C@@H](C)O)C(C)C)[C@@H](C)O, Derivative of human amylin; also called compound 7) [N^α1-[(4S)-4-carboxy-4-(19-carboxynonadecanoylamino)butanoyl]-[Glu14,Arg17,Pro21,Pro26]-h-amylin]
2.3	14.3	0.514	7.35	{C20 diacid-γGlu}-KCNTATCATQRLAEFLRHSSPNFGAIPSPTNVGSNTY-NH2 (disulfide 2-7; SMILES CC[C@H](C)[C@H](NC(=O)[C@H](C)NC(=O)CNC(=O)[C@H](Cc1ccccc1)NC(=O)[C@H](CC(N)=O)NC(=O)[C@@H]1CCCN1C(=O)[C@H](CO)NC(=O)[C@H](CO)NC(=O)[C@H](Cc1c[nH]cn1)NC(=O)[C@H](CCCNC(=N)N)NC(=O)[C@H](CC(C)C)NC(=O)[C@H](Cc1ccccc1)NC(=O)[C@H](CCC(=O)O)NC(=O)[C@H](C)NC(=O)[C@H](CC(C)C)NC(=O)[C@H](CCCNC(=N)N)NC(=O)[C@H](CCC(N)=O)NC(=O)[C@@H](NC(=O)[C@H](C)NC(=O)[C@@H]1CSSC[C@H](NC(=O)[C@H](CCCCN)NC(=O)CC[C@H](NC(=O)CCCCCCCCCCCCCCCCCCC(=O)O)C(=O)O)C(=O)N[C@@H](CC(N)=O)C(=O)N[C@@H]([C@@H](C)O)C(=O)N[C@@H](C)C(=O)N[C@@H]([C@@H](C)O)C(=O)N1)[C@@H](C)O)C(=O)N1CCC[C@H]1C(=O)N[C@@H](CO)C(=O)N1CCC[C@H]1C(=O)N[C@H](C(=O)N[C@@H](CC(N)=O)C(=O)N[C@H](C(=O)NCC(=O)N[C@@H](CO)C(=O)N[C@@H](CC(N)=O)C(=O)N[C@H](C(=O)N[C@@H](Cc1ccc(O)cc1)C(N)=O)[C@@H](C)O)C(C)C)[C@@H](C)O, Derivative of human amylin; also called compound 37)
